Measured values reported in US20250388643A1, “GLUCAGON-LIKE PEPTIDE-2 COMPOSITIONS AND METHODS OF MAKING AND USING SAME” (Amunix Pharmaceuticals, Inc., priority 2011, published 2025).
Entries after “also recorded” stand apart in the source; their conditions may differ. Where two headings read alike, the source gives them in different places.

Key:
[1] = tested on: indomethacin-induced intestinal inflammation in Wistar rats; experiment: Rat Crohn's Disease indomethacin-induced intestinal inflammation model, Study 1; type: in vivo
Description: To determine the efficacy of GLP2-XTEN using single dose or qd dosing, the GLP2-2G-XTEN-AE864 fusion protein was evaluated in a rat model of Crohn's Disease of indomethacin-induced intestinal inflammation in three separate studies.
Study 1: Intestinal inflammation was induced in eighty male Wistar rats (Harlan Sprague Dawley) using indomethacin administered on Days 0 and 1 of the experiment. The rats were divided into seven treatment groups for treatment according to Table 19.
All treatments were administered per the schedule starting on Day −3 of the experiment. Body weights were determined daily. Groups 3 and 5 were dosed equimolar/day. On Day 2 (24 hours post-2nd indomethacin dose), the animals were prepped for sacrifice and analysis. Thirty minutes prior to sacrifice, the rats were injected intravenously with 1 ml 1% Evans Blue dye, in order to visualize ulcers and extent of inflammation by histopathology analysis. The rats were anesthetized (SOP 1810), blood samples were removed to determine the concentration of GLP-2-2G-XTEN using the anti-XTEN/anti-GLP2 ELISA method. The rats were euthanized then necropsied and scored by gross examination of the intestines for the presence of adhesions; i.e., none=0, mild=1, moderate=2, or severe=3. The small intestines were removed and the length of each was recorded. In each small intestine, a longitudinal incision was made and the interior was examined. The degree and length of the ulcerated area was recorded as a score; i.e., none=0, few=1, multiple=2, or continuous=3. For TNFα determination, intestinal samples were thawed and homogenized in a total of 20 ml with DPBS. The supernatants were equilibrated to room temperature and assayed for TNFα by ELISA (R&D Systems, Cat. RTA00, lot 281687, exp. 7 Sep. 2011). The samples for Group 1 were assayed undiluted. The samples for Groups 2-7 were diluted 1:4. For histopathology, the small intestines were gently washed with saline to remove the fecal material and were blotted to remove excess fluid. Each small intestine was weighed then processed for histopathology examination to quantitate the degree of inflammation; i.e., 0.0%=0, 1-33%=1, 34-66%=2, 67-100%=3.

[2] = tested on: indomethacin-induced intestinal inflammation in Wistar rats; experiment: Rat Crohn's Disease indomethacin-induced intestinal inflammation model, Study 3; type: in vivo
Description: Study 3: A third indomethacin-induced inflammation study was performed to verify previous results and test additional dose regimens. Intestinal inflammation was induced in male Wistar rats (Harlan Sprague Dawley) using indomethacin administered on Days 0 and 1 of the experiment according to Table 21.
All treatments were administered per the schedule starting on Day-3 of the experiment. Body weights were determined daily. On Day 2 (24 hours post-2nd indomethacin dose), the animals were prepped for sacrifice and analysis. The small intestines were removed and the length of each was recorded. Quantitative histopathology was performed on a subset of samples. Rat small intestine samples consisted of a 3 cm section of proximal jejunum and a 3 cm section of mid-jejunum collected 15 cm and 30 cm from the pylorus, respectively. Samples were fixed in 10% neutral buffered formalin. Samples were trimmed into multiple sections without bias toward lesion presence or absence. These sections were placed in cassettes, embedded in paraffin, microtomed at approximately 4 microns thickness, and stained with hematoxylin and eosin (H&E). The slides were evaluated microscopically by a board certified veterinary pathologist and scored for villous height as well as infiltration/inflammation, mucosal atrophy, villi/crypt appearance, abscesses/ulceration. A 1 to 4 severity grading scale was used, where 1=minimal, 2=mild, 3=moderate, 4=marked/severe, reflecting the combination of the cellular reactions seen histopathologically. Small intestine length was analyzed with an ANOVA model with a Tukey/Kramer post-hoc test for pairwise comparisons, with significance at p=0.05. Non-parametric histology score variables were compared with the vehicle control using a Mann Whitney U test with a Bonferroni correction for the p-value to create an overall alpha of 0.05.

[3] = tested on: indomethacin-induced intestinal inflammation in Wistar rats; type: in vivo, rat
Description: Study 2: Intestinal inflammation was induced in eighty male Wistar rats (Harlan Sprague Dawley) using indomethacin administered on Days 0 and 1 of the experiment. The rats were divided into eight treatment groups for treatment according to Table 20. All treatments were administered per the schedule starting on Day-3 of the experiment. Body weights were determined daily. On Day 2 (24 hours post-2nd indomethacin dose), the animals were prepped for sacrifice and analysis. Thirty minutes prior to sacrifice, the rats were injected intravenously with 1 ml 1% Evans Blue dye, in order to visualize ulcers and extent of inflammation by histopathology analysis. The rats were anesthetized and blood samples were removed to determine the concentration of GLP-2-2G-XTEN using the anti-XTEN/anti-GLP2 ELISA method. The rats were euthanized then necropsied and scored by gross examination of the intestines for the presence of adhesions; i.e., none=0, mild=1, moderate=2, or severe=3. The small intestines were removed and the length of each was recorded. In each small intestine, a longitudinal incision was made and the interior was examined. The degree and length of the ulcerated area was recorded as a score; i.e., none=0, few=1, multiple=2, or continuous=3. The fecal material was washed away with saline and blotted to remove excess fluid and each small intestine was weighed then processed for histopathology examination to quantitate the degree of inflammation; i.e., 0.0%=0, 1-33%=1, 34-66%=2, 67-100%=3.

B1: GLP2-2G-XTEN_AE864: fusion protein of GLP-2 with glycine at position 2 linked at the C-terminus to XTEN AE864; sequence of FIG. 28 (SEQ ID NO: 798) (protein)
chain: HGDGSFSDEMNTILDNLAARDFINWLIQTKITDGGSPAGSPTSTEEGTSESATPESGPGTSTEPSEGSAPGSPAGSPTSTEEGTSTEPSEGSAPGTSTEPSEGSAPGTSESATPESGPGSEPATSGSETPGSEPATSGSETPGSPAGSPTSTEEGTSESATPESGPGTSTEPSEGSAPGTSTEPSEGSAPGSPAGSPTSTEEGTSTEPSEGSAPGTSTEPSEGSAPGTSESATPESGPGTSTEPSEGSAPGTSESATPESGPGSEPATSGSETPGTSTEPSEGSAPGTSTEPSEGSAPGTSESATPESGPGTSESATPESGPGSPAGSPTSTEEGTSESATPESGPGSEPATSGSETPGTSESATPESGPGTSTEPSEGSAPGTSTEPSEGSAPGTSTEPSEGSAPGTSTEPSEGSAPGTSTEPSEGSAPGTSTEPSEGSAPGSPAGSPTSTEEGTSTEPSEGSAPGTSESATPESGPGSEPATSGSETPGTSESATPESGPGSEPATSGSETPGTSESATPESGPGTSTEPSEGSAPGTSESATPESGPGSPAGSPTSTEEGSPAGSPTSTEEGSPAGSPTSTEEGTSESATPESGPGTSTEPSEGSAPGTSESATPESGPGSEPATSGSETPGTSESATPESGPGSEPATSGSETPGTSESATPESGPGTSTEPSEGSAPGSPAGSPTSTEEGTSESATPESGPGSEPATSGSETPGTSESATPESGPGSPAGSPTSTEEGSPAGSPTSTEEGTSTEPSEGSAPGTSESATPESGPGTSESATPESGPGTSESATPESGPGSEPATSGSETPGSEPATSGSETPGSPAGSPTSTEEGTSTEPSEGSAPGTSTEPSEGSAPGSEPATSGSETPGTSESATPESGPGTSTEPSEGSAPG
Q: B1 was tested. Which small intestine weight ([1]; 0.5 mg/kg peptide, both fusion protein groups, compared to diseased control Group 2, FIG. 21C) did it give?
A: Its small intestine weight is “significant increase”.

Q: And the ulceration score ([1]; 6 mg/kg fusion protein)?
A: The ulceration score was “not significantly different from the non-diseased control”.

Q: What about the “scores of adhesions and transulceration” value ([1]; 2 and 6 mg/kg fusion protein) of the same molecule?
A: Its value is “not significantly different from the non-diseased control”.

Q: And the small intestine length ([1]; FIG. 21B)?
A: The small intestine length was “significant increase; also recorded: length equivalent to the non-diseased control”.

Q: What about the “ulceration (gross pathology scoring of small intestine)” value ([1]; FIG. 21D) of the same molecule?
A: Its value is “significant decreases in ulceration”.

Q: What about the “small intestine inflammation score” value ([1]; FIG. 21F) of the same molecule?
A: The value was “neither the GLP-2-2G peptide nor the GLP-2-2G-XTEN fusion protein treatments showed a significant effect on inflammation”.

Q: What about the “body weight at termination” value ([1]; compared to disease control (Group 2), FIG. 21A) of the same molecule?
A: Its value is “demonstrated a significant increase”.

Q: What about the “scores of adhesions and transulceration” value ([1]; compared to diseased control (Group 2), FIG. 21E) of the same molecule?
A: Its value is “significant decreases”.

Q: What about the “TNFα in small intestine (ELISA)” value ([1]; compared to diseased control Group 2, FIG. 21G) of the same molecule?
A: The value was “significantly decreased cytokine levels”.

Q: And the “efficacy in improving indomethacin-induced small intestine damage” value ([1]; equal nmol/kg dosing)?
A: The value was “as good or better than GLP2-2G peptide”.

Q: And the small intestine length ([2]; compared to vehicle-treated diseased rats, FIG. 24A)?
A: The small intestine length was “increase in small intestine length”.

Q: What about the “efficacy by regimen compared with peptide” value ([2]; dosed once at 75 nmol/kg or three times at 25 nmol/kg) of the same molecule?
A: Its value is “as effective as GLP2-2G peptide dosed ten times at 12.5 nmol/kg”.

Q: What about the villi height ([2]; fusion protein high (total dose 125 nmol/kg) and low (total dose 75 nmol/kg), FIG. 24B) of the same molecule?
A: Its villi height is “significant increase in villi height”.

Q: And the mucosal atrophy score ([2]; high and low dose, vs vehicle-treated diseased rats, FIG. 24C)?
A: The mucosal atrophy score was “significantly lower mucosal atrophy score”.

Q: What about the “efficacy in improving indomethacin-induced small intestine damage (histopathology)” value ([2]; rat, in vivo) of the same molecule?
A: The value was “as good or better than GLP2-2G peptide”.

Q: And the “mucosal ulceration and mixed cell infiltrate” value ([2]; three treatment groups)?
A: Its value is “not significant”.

Q: What about the “protection of the intestines from inflammatory effects of indomethacin” value ([3]; conclusion of the experiment) of the same molecule?
A: The value was “provided significant protection to the intestines from the inflammatory effects of indomethacin”.

Q: And the “histopathology: protective effects” value ([3]; daily bid peptide, once-daily fusion protein)?
A: The value was “most pronounced in the ileum, but were also seen in the jejunum”.

Q: And the efficacy by regimen ([3]; daily dosing at 2 mg/kg)?
A: Its efficacy by regimen is “greatest efficacy”.

Q: What about the adhesions score ([3]; once-daily fusion protein, daily bid peptide, FIG. 22B) of the same molecule?
A: Its adhesions score is “nearly complete protection from adhesions”.

Q: What about the small intestine length ([3]; once-daily fusion protein, daily bid peptide, vs indomethacin-treated vehicle control) of the same molecule?
A: The small intestine length was “reached statistically significant difference”.

Q: What about the total disease score ([3]; peptide delivered bid, fusion protein delivered qd, vs indomethacin-treated vehicle control) of the same molecule?
A: The total disease score was “significantly improved scores”.

Q: What about the “fusion protein in blood samples (anti-XTEN/anti-GLP2 ELISA)” value ([3]; rat, in vivo) of the same molecule?
A: Its value is “detectable at Day 2 in all animals of Group 4 and Group 8, and three rats in Group 7”.

Q: And the total disease score ([3]; single doses at 6 or 2 mg/kg, vs indomethacin-treated vehicle control)?
A: The total disease score was “significantly improved scores”.

Q: And the efficacy by regimen ([3]; single doses of 6 mg/kg or 2 mg/kg)?
A: The efficacy by regimen was “significant efficacy in some parameters”.

Q: What about the adhesions score ([3]; single high-dose 6 mg/kg) of the same molecule?
A: Its adhesions score is “reached statistically significant difference”.
